Experimental data reported in publication PMC6884004.

Columns and labels:
[1] = molecular target: synthetic MTED peptide (MT elimination domain of Drosophila Efa6) (Drosophila melanogaster); test: pull-down; MTED or scrambled peptide coupled via the N-terminal amine to cyanogen bromide-activated Sepharose beads (5 ng peptide/μl beads); 15 μM porcine brain tubulin (un-polymerised GDP-tubulin); BRB80 with 0.2% Tween 20, 30 min, 20°C; five washes; SDS-PAGE band intensity compared with uncoated beads
[2] = molecular target: Full length human MCAK (mitotic centromere-associated kinesin) (human) (UniProt Q99661); test: pull-down; full length human MCAK coupled (1 µg/µl beads) to cyanogen bromide-activated Sepharose beads via lysines or the N-terminal amine; beads pre-incubated with 5 mM AMPPNP or ADP for 30 min at 20°C; 15 μM porcine brain tubulin, 30 min, 20°C; nucleotide kept in the washing buffer; SDS-PAGE band intensity compared with uncoated beads
[3] = molecular target: porcine brain tubulin (un-polymerised GDP-tubulin) (porcine) (UniProt P02550)
[4] = molecular target: GMPCPP-stabilised, rhodamine-labeled microtubules grown from porcine brain tubulin (porcine) (UniProt P02550); test: TIRF microscopy of GFP-tagged protein on surface-adhered microtubules; GMPCPP-stabilised rhodamine-labeled MTs adhered to flow chambers; 20 nM Efa6-ΔCterm::GFP in BRB20 pH 6.9, 75 mM KCl, 0.05% Tween20, 0.1 mg/ml BSA, or 20 nM MCAK::GFP in the same buffer plus 1 mM ATP and 1 mM taxol; mean GFP intensity on individual MTs

For “porcine brain tubulin (un-polymerised GDP-tubulin) (from UniProt P02550 1-451; P02554 1-445) (complex)”, the fold tubulin pulled down against beads coated with scrambled peptide [1] was 5 fold, the fold tubulin pulled down against uncoated beads [1] was 3 fold and the fold tubulin pulled down against uncoated beads (with AMPPNP or ADP) [2] was 1.5 fold.

B1: synthetic MTED peptide (MT elimination domain of Drosophila Efa6) (peptide)
peptide: APRFEAYMMTGDLILNLSRT
For B1, the fold decrease in amount of MT polymer in the MT growth assay (30 μM tubulin with 30 μM MTED peptide, against no peptide) [3] was 10 fold.

B2: MCAK::GFP (His6-MCAK::EGFP-StrepII) (enzyme)
chain: MAMDSSLQARLFPGLAIKIQRSNGLIHSANVRTVNLEKSCVSVEWAEGGATKGKEIDFDDVAAINPELLQLLPLHPKDNLPLQENVTIQKQKRRSVNSKIPAPKESLRSRSTRMSTVSELRITAQENDMEVELPAAANSRKQFSVPPAPTRPSCPAVAEIPLRMVSEEMEEQVHSIRGSSSANPVNSVRRKSCLVKEVEKMKNKREEKKAQNSEMRMKRAQEYDSSFPNWEFARMIKEFRATLECHPLTMTDPIEEHRICVCVRKRPLNKQELAKKEIDVISIPSKCLLLVHEPKLKVDLTKYLENQAFCFDFAFDETASNEVVYRFTARPLVQTIFEGGKATCFAYGQTGSGKTHTMGGDLSGKAQNASKGIYAMASRDVFLLKNQPCYRKLGLEVYVTFFEIYNGKLFDLLNKKAKLRVLEDGKQQVQVVGLQEHLVNSADDVIKMIDMGSACRTSGQTFANSNSSRSHACFQIILRAKGRMHGKFSLVDLAGNERGADTSSADRQTRMEGAEINKSLLALKECIRALGQNKAHTPFRESKLTQVLRDSFIGENSRTCMIATISPGISSCEYTLNTLRYADRVKELSPHSGPSGEQLIQMETEEMEACSNGALIPGNLSKEEEELSSQMSSFNEAMTQIRELEEKAMEELKEIIQQGPDWLELSEMTEQPDYDLETFVNKAESALAQQAKHFSALRDVIKALRLAMQLEEQASRQISSKKRPQ
B2 was tested, and the fold of molecules on MTs against Efa6-ΔCterm::GFP at the same concentration [4] was greater than 2 fold.
